These are literature values, as cited in article PMC6222470.

For data set [1], the target named is histone H4 H4K20me2 peptide (Homo sapiens) (UniProt P62805).
In data set [2] the target is histone H3 H3K14ac peptide (Homo sapiens) (UniProt P68431).
Data set [3] concerns the target histone H3K14ac peptide H3 tail peptide (Homo sapiens) (UniProt P68431).
Data set [4] deals with histone H3 H3K36me3 peptide (Homo sapiens) (UniProt P68431).
Data set [5] deals with histone H3.3K36me3 H3.3 peptide (Homo sapiens) (UniProt P84243).
Sequence of histone H3.3K36me3 H3.3 peptide (Homo sapiens) (P84243 20-43): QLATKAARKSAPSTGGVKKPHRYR

Sequence of ZMYND11 PHD-BD-ZnF-PWWP (Q15326 100-371): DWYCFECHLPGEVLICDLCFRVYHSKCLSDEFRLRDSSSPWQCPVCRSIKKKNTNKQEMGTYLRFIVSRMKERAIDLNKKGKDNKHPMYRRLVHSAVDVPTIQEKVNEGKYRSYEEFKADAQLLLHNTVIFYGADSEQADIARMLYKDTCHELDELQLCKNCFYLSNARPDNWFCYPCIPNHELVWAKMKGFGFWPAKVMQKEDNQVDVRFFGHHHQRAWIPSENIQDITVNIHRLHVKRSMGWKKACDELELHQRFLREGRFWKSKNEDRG
Sequence of BRM BD BD (P51531 1378-1506): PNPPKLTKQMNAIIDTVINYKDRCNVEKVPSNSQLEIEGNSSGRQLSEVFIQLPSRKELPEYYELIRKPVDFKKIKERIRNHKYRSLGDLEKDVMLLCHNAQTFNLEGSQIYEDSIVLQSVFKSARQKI
Sequence of BRM BD (P51531 1378-1506): as above
Sequence of PHF1 Tudor (O43189 26-89): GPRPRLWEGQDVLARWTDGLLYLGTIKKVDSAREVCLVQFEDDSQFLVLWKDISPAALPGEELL
Sequence of 53BP1 TTD (Q12888 1484-1603): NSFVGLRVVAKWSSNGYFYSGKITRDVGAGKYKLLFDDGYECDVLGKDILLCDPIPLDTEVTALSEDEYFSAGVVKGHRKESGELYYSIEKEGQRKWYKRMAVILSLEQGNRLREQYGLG

The Kd is the concentration at which binding is half-saturated. For the substance 53BP1 TTD (from UniProt Q12888), the Kd in data set [1] was 19.7 µM.

With BRM BD (from UniProt P51531), the Kd in data set [2] was 900 µM.

On to BRM BD BD (from UniProt P51531), for which, in data set [3], the Kd was 900 µM.

For the substance PHF1 Tudor (from UniProt O43189), the Kd in data set [4] is 36 µM. As for “ZMYND11 PHD-BD-ZnF-PWWP (from UniProt Q15326)”, the Kd in data set [5] is 56 µM.
